Measured values: patent publication US20090062187A1, “Use of Hmgb1 for Wound Healing” (priority 2004, published 2009)
Entries after “also recorded” stand apart in the source; their conditions may differ.

What was measured:
normal CD1 mice = test: Wound closure after full-thickness excised wound in normal CD1 mice; type: in vivo; conditions: for wound area reduced by % of the initial size / wound closure / healing rate vs vehicle: normal mice; for wound area reduced by % of the initial size: GL 250 μg/mouse topically every two days; for wound closure / healing rate vs vehicle: GL 250 μg/mouse topically in wound area
diabetic CD1 mice = test: Wound closure after full-thickness excised wound in streptozotocin-diabetic CD1 mice; type: in vivo
Procedure: CD1 male mice were obtained from Charles River (Calco, LC, Italy). Mice were rendered diabetic by intraperitoneal injection of streptozotocin (Sigma-Aldrich, St Louis, Mo., USA) at 1.2 mg/30 g weight/day for 5 consecutive days. After 7 days, glycemia was measured and animals with glycemia of 200 to 400 mg/dl were selected for further studies. Mice were anesthetized with intraperitoneal injection of 2.5% Avertin (100% Avertin: 10 g of 2,2,2-tribromoethyl alcohol and 10 ml of tert-amyl alcohol, Sigma). Their dorsum was clipped free of hair and a full thickness wound of 3.5 mm diameter was created using a biopsy punch.
HMGB1 treatment was performed directly in the wound area by injecting 200 ng, 400 ng or 800 ng of purified protein (13) in 20 μl of saline solution at time immediately after wound. Control groups received 20 μl of saline solution in the wound. Glycyrrhyzin, GL (12) was administered topically in the wound area every two days from day 0 to day 14 after wound creation. The concentration used for each administration was 250 μg/mouse in 30 μl of PBS. Control mice received vehicle (PBS).
Animals were photographed at day 0, 3, 5, 6, 7, 10, and 14 after wound. Pictures were digitally processed and areas of wounds were calculated using the KS300 system (Zeiss, Jena GmbH, Germany). For each sample the percentage of wound closure was calculated as the ratio: […]
Where time 0 is the time immediately after the wound. The groups included 6 to 10 animals. Results are presented as mean±standard error. Statistical significance between two measurements was evaluated by unpaired Student's t test.

normal human fibroblasts = test: Chemotaxis assay (modified Boyden chamber), normal human fibroblasts; type: cell-based; conditions: HMGB1 200 ng/ml
Procedure: (§1) FIG. 9: Effect of HMGB1 on human fibroblasts and keratinocytes migration. Normal (A) and diabetic (B) fibroblasts were obtained from human biopsies. 0.4×10^6 cells/ml were placed in upper compartment of the modified Boyden chambers. HMGB1 (200 ng/ml) or PDGF (15 ng/ml) was added to the lower compartment and incubated for 6 hrs at 37° C. (C) Hacat cells were obtained from ATCC and migration experiments performed as described in (A-B). After staining with Giemsa solution, migrated cells were quantified by counting nuclei in five random microscope fields (40×). The data are expressed as migration index (fold increase in number of migrated cells relative to number of migrated cells in the absence of HMGB1 or PDGF) and are mean±SD of at least 4 independent experiments performed in triplicate. Statistical significance was evaluated by unpaired Student's t test. […]
(§2) The lower compartment of each chamber was filled with 28 μl DMEM with 0.1% BSA. […] Cells on five random fields on the lower face of the filter were counted at 40× magnification and migration index was calculated by dividing the number of migrated cells in the presence of chemoattractants by the cells migrated in response to DMEM with 0.1% BSA.

[1] = tested on: diabetic human fibroblasts; test: Chemotaxis assay (modified Boyden chamber), diabetic human fibroblasts; type: cell-based; conditions: HMGB1 200 ng/ml
Procedure: as §1, §2

[2] = tested on: keratinocytes (HaCat cell line); test: Chemotaxis assay (modified Boyden chamber), keratinocytes; type: cell-based, human; conditions: HMGB1 200 ng/ml
Procedure: FIG. 9: Effect of HMGB1 on human fibroblasts and keratinocytes migration. Normal (A) and diabetic (B) fibroblasts were obtained from human biopsies. 0.4×10^6 cells/ml were placed in upper compartment of the modified Boyden chambers. HMGB1 (200 ng/ml) or PDGF (15 ng/ml) was added to the lower compartment and incubated for 6 hrs at 37° C. (C) Hacat cells were obtained from ATCC and migration experiments performed as described in (A-B). After staining with Giemsa solution, migrated cells were quantified by counting nuclei in five random microscope fields (40×). The data are expressed as migration index (fold increase in number of migrated cells relative to number of migrated cells in the absence of HMGB1 or PDGF) and are mean±SD of at least 4 independent experiments performed in triplicate. Statistical significance was evaluated by unpaired Student's t test.
Hacat human cells were obtained according to (14). […]
as §2

Row | Molecule | wound area reduced by % of the initial size (normal CD1 mice; day 3) | wound area reduced by % of the initial size (normal CD1 mice; day 5) | wound area reduced by % of the initial size (normal CD1 mice; day 6) | wound area reduced by % of the initial size (normal CD1 mice; day 7) | wound closure / healing rate vs vehicle (normal CD1 mice) | wound closure / healing rate vs vehicle (normal CD1 mice; listed as glycyrrhizin) | wound closure vs saline (diabetic CD1 mice; glycyrrhizin 250 μg in the wound area) | wound closure (normal CD1 mice; normal CD1 mice, HMGB1 200 ng in 20 μl injected in wound area immediately after wounding, vs saline) | percentage of wound closure (normal CD1 mice; normal CD1 mice, HMGB1 200 ng, day 3 after wounding) | percent of wound closure vs saline (normal CD1 mice; normal CD1 mice, HMGB1 200 ng, day 5, p<0.03) | percentage of wound closure (diabetic CD1 mice; HMGB1 200 ng, day 3 after wounding) | percentage of wound closure (diabetic CD1 mice; HMGB1 200 ng, day 5) | percentage of wound closure (diabetic CD1 mice; HMGB1 200 ng, day 6) | healing rate vs saline (diabetic CD1 mice; HMGB1 200 ng, p<0.03) | complete wound closure evident by (diabetic CD1 mice; HMGB1 200 ng, same in saline group) | wound closure compared to lower dose (200 ng) (diabetic CD1 mice; HMGB1 400 ng in 20 ul, 3 days after wounding) | wound closure compared to dose of 200 ng (diabetic CD1 mice; HMGB1 800 ng) | chemotactic effect (migration) (normal human fibroblasts) | chemotactic effect (migration) [1] | chemotactic effect (migration) [2]
1 | CC1(C)[C@@H](O[C@H]2O[C@H](C(=O)O)[C@@H](O)[C@H](O)[C@H]2O[C@@H]2O[C@H](C(=O)O)[C@@H](O)[C@H](O)[C@H]2O)CC[C@]2(C)[C@H]3C(=O)C=C4[C@@H]5C[C@@](C)(C(=O)O)CC[C@]5(C)CC[C@@]4(C)[C@]3(C)CC[C@@H]12 [GL, Glycyrrhizin] | 15±3.5% | 38.7±6% | 61.2±5.9% | 73.3±4.5% | slowed down wound closure | significantly lower | No significant differences; also recorded: did not significantly modify wound closure | – | – | – | – | – | – | – | – | – | – | – | – | –
2 | HMGB1 (protein, UniProt P09429 1-215, looked up, purified protein; cytokine released from monocyte-macrophage and necrotic cells, ligand of RAGE) High mobility group protein B1: MGKGDPKKPRGKMSSYAFFVQTCREEHKKKHPDASVNFSEFSKKCSERWKTMSAKEKGKFEDMAKADKARYEREMKTYIPPKGETKKKFKDPNAPKRPPSAFFLFCSEYRPKIKGEHPGLSIGDVAKKLGEMWNNTAADDKQPYEKKAAKLKEKYEKDIAAYRAKGKPDAAKKGVVKAEKSKKKKEEEEDEEDEEDEEEEEDEEDEDEEEDDDDE | – | – | – | – | – | – | – | increased wound closure | 30.5±8.5% | significantly higher | 47.5±15.8% | 66.5±13% | 72.2±9% | significantly higher | ≤ 14 days | larger wound closure | same effect | exhibited a chemotactic effect | exhibited a chemotactic effect | exhibited a chemotactic effect
